In the DeepSol protein solubility set:

Test: soluble on expression in E. coli; label from the status in PepcDB or PDB records
With “MRYLTAGESHGPRLTAIIEGIPAGLPLTAEDINEDLRRRQGGYGRGGRMKIENDQVVFTSGVRHGKTTGAPITMDVINKDHQKWLDIMSAEDIEDRLKSKRKITHPRPGHADLVGGIKYRFDDLRNSLERSSARETTMRVAVGAVAKRLLAELDMEIANHVVVFGGKEIDVPENLTVAEIKQRAAQSEVSIVNQEREQEIKDYIDQIKRDGDTIGGVVETVVGGVPVGLGSYVQWDRKLDARLAQAVVSINAFKGVEFGLGFEAGYRKGSQVMDEILWSKEDGYTRRTNNLGGFEGGMTNGQPIVVRGVMKPIPTLYKPLMSVDIETHEPYKATVERSDPTALPAAGMVMEAVVATVLAQEILEKFSSDNLEELKEAVAKHRDYTKNY” the “soluble on expression in E. coli” value was “soluble”. In the case of “MRYEEPVFRPPSEAFSLIVQATIGCSWNRCTFCGMYKMKKFRVRDIEEVKEDFRLAKEIYGDVRRVFLADGNALAADTDYLLEIADYANKLFNLERISCYATPQDILEKSKEELKEIRNAGIKLLYVGIESGDDEILERIRKGVSSNEIAEACMKAHECGFELSVTVLTGIGGKERSYKNARNTARLLNRISPKYTGVLTYIPVPNTPLYVKIKRGEFLLPNPLENLLELRWMVERIEARTIFRCNHASNYLPLKGTLPEDREKLLKAIDYAIAHPEVLKPEWLRGL”, the “soluble on expression in E. coli” value is reported as “not soluble”. With “MATMDEKPLYGLERTVFRQLLHLFSRYADVIEKVILFGSRARGDYKEGSDIDLAIKFRKPGGPLYLLQSDLDELPIIYPIDVVDYNQIHNEQLKMNIDQEGKTIFQTNEHGKVMVTMSRLMDRFYDFERALSKLRQSAARDAQTDDLVVDATIQRFEFTYELAWKWMKLYLEHQGYAEVTSPRKTIREAFREGLIQDGETWLRMLEDRNRTSHTYDEETAMDIYERIRIHYIPLFDRLLDEMKQRLDSAT” the “soluble on expression in E. coli” value was “not soluble”. With “MSLKPWLLMMLTTLLVGCGGTPQPKVSFYLLPNNPELSEHIQPKTLPLLVVQPVELAAYLDTQGIVYRQSETQVIQARQNQWAQRLSPQLTQRITNDLRRKQSRYWPAPLNASSIQQEHWKLQVRLQRFNGVYTGNAEVAGNWELLNPKGESMLNQEFSFQVPLKDTGYPALVEALSAGVDQLSTQIETQLVTREGHHHHHH” the “soluble on expression in E. coli” value was “soluble”. For “GQGVYTYEDGGVLQGTYVDGELNGPAQEYDTDGRLIFKGQYKDNIRHGVCWIYYPDGGSLVGEVNEDGEMTGEKIAYVYPDERTALYGKFIDGEMIEGKLATLMSTEEGRPHFELMPGNSVYHFDKSTSSCISTNALLPDPYESERVYVAESLISSAGEGLFSKVAVGPNTVMSFYNGVRITHQEVDSRDWALNGNTLSLDEETVIDVPEPYNHVSKYCASLGHKANHSFTPNCIYDMFVHPRFGPIKCIRTLRAVEADEELTVAYGYDHSPPGKSGPEAPEWYQVELKAFQATQQK”, the “soluble on expression in E. coli” value was “soluble”. In the case of “MLKHKIINLIQEKREGSYWDFKAEYHKDKAELLHDIICLSNNLLNQEAYLILGVADNGHILGVAGDSNRKNQEELISFITGKKFAAGRHPKISLMTFEYEEKEIDVIIINPKGYVPYYLERAETDQKSKKNKTVNAGSIYTRVEDKNTPIDSTASPLDTEILWKMHFGLYPTPIKRLQNYLLTPEKWMQNSTGYFHSESPEYIVYKNEDIEEKENYFNLVSPFYAYNQINSNTLYSYYEFKYHSTVLYGCRCISLDSGIYTTPVPELGEINFNMHRDDTIYYRYFIEETMLYNIHLFMYKGDSMEEKFAMDKFLECVLVYKSDVEKELFENYILDNWDKVNQSINENNKRVFGTEHLSQLEKEDITKKVKTVKVLKDELENFRTLEHHHHHH”, the “soluble on expression in E. coli” value is reported as “not soluble”. For “MLSARTMKEVVYWSPKKVADWLLENAMPEYCEPLEHFTGQDLINLTQEDFKKPPLYRVSSDNGQRLLDMIETLKMEHHMEAHKN”, the “soluble on expression in E. coli” value was “soluble”. For “MRKQWLGICIAAGMLAACTSDDGQQQTVSVPQPAVCNGPIVEISGADPRFEPLNATANQDYQRDGKSYKIVQDPSRFIQAGLAAIYDAEPGSNLTASGEAFDPTQLTAAHPTLPIPSYARITNLANGRMIVVRINDRGPYGNDRVISLSRAAADRLNTSNNTKVRIDPIIVAQDGSLSGPGMACTTVAKQTYALPAPPDLSGGAGTSSVSGPQGDILPVSNSTLKSEDPTGAPVTSSGFLGAPTTLAPGVLEGSEPTPAPQPVVTAPSTTPATSPAMVTPQAASQSASGNFMVQVGAVSDQARAQQYQQQLGQKFGVPGRVTQNGAVWRIQLGPFANKAEASTLQQRLQTEAQLQSFITTAQ”, the “soluble on expression in E. coli” value was “not soluble”. With “MFLDRERELQFLERRYEMGGPEFIVIYGRRRVGKTALLLEFISRHGGIYLLARETSNLENLKRFSDRLSEYFGDDFLKRNPFQNWDAFLEYLNQKATERLVVVIDEFPYLVKGDRSLPSILQEYWDLKLSNGRIFLIICGSSISMMEKLLGYKSPIYGRRTGQINLKPVDFLHAREFLPGYSLEDFIKAYGILGGSPAHLLEFDDSKTIKENLLEYLRSDSLLYQDAFFVLREELEEPRNYFAIMEAVAAGKTSLGEIMNETGLSRATVAKYLSVLIELDFVKREIPITASRKSRRGRYYIKDNYFAFWFRYIHPNIDFIESERRKELLELIIDDLPNYLGGIFENVAIEFLPLISNKLPFKPLKIGRWWHKNEEIDLVAFNEKEEKAILIEVKWKTLNKIEANKILKDLNRKSKILKMKEWEQYHGIIAKRVKDKEKIKGGLIWDLEDIENLKFSPELEHHHHHH” the “soluble on expression in E. coli” value was “not soluble”. In the case of “MSATRHRSDGHEEIVALDALPLSAAIRRRELSCREVMQAYLAQIERFNPRVNAIVSLQAESRLLTQADERDRQLARGEWLGWMHGMPQAIKDLAATSGIPTTLGSPLFAGQVPEHDAIVVERVKSSGAIVIGKTNVPEFGLGSQTYNPLFGTTRNAYDPARIAGGSSGGAAVALALRMLPVADGSDMMGSLRNPAAYNNVYGFRPSQGRVPHGPQAELFVQQLATEGPMGRSVADLARLLATQAGYDPRCPLSLRDDPRRFADDLGRDFRGARLGWLGDYAGYLPMEEGVLELCEAALGDFAELGCDVEACLPDYPLERLWRTWLVHRQWLVQGSLGELYADPARRVRLKPEAQWEVESGLGLGAAEVYRASLDRSDWYRALARLFERYDFLLLPSAQVFPFDAETAWPRQVAGRPMDTYHRWMEVVIGPTLAGLPAISVPIGFGAAGLPMGLQIIGPAQADLAVLQLAHAHEGLTRWVSRRPPAMLEAPGGI”, the “soluble on expression in E. coli” value is reported as “not soluble”. For “MASSGYLYSLVAEDGVWQAFVSKAKLSRERAVALHKALRELTALLAIADRGRLQKGLKGREKFLKVFPRLKAELVEHISQLHALADHAEKLHRGCTISNVVADSFSAASDILSLLGLFLAPVTAEGSLVLSATGLGLGVAATVTDVATSIVEETSRVLDEVEAAPTGTHVLGEAGTSVDRIASKVPQATRDITRDLEALEQHMNALRLVRANPRLEEDARILATTGSISAQRAMQVRASLKGTPLAMSNEARIQRATAAGAALWSDVDSLVKESKHLYEGSASESAEALRKLARELEEKLEGLMEFYKTI”, the “soluble on expression in E. coli” value was “soluble”. In the case of “MTHHTEVFEGGTIDIEDDTSLTINGKEISYVHDAVKNKWSSRYLPYTQYDSLLDLARAIIRDTVEFSGVKE”, the “soluble on expression in E. coli” value is reported as “soluble”. In the case of “MAGVSTTQSGAIGVDRTQYMSSLVPEQALVQEAGQQYAEIVQEARAKGLLDRDPAQLSRVRAISQRLIAQTGVFRADAANWPWEVHVLSVDEVNAWCMPGGKIAVYTGLLAHIKPTDDELAAVLGHEIAHALREHARERVSQQMATSIGLSVLSMATGSPGASDLGGKLTEVMFTLPNSRTHETEADRMGVELAARAGFDPRAAVTLWQKMGAADGNAPPEFLSTHPSASTRIGELQQALQKVLPLYEQARGQAAKLEHHHHHH”, the “soluble on expression in E. coli” value is reported as “not soluble”. For “MSMNRQEISDLCVKSLEGRMVGTEAQNIENGNAFYRYFFTNFPDLRVYFKGAEKYTADDVKKSERFDKQGQRILLACHLLANVYTNEEVFKGYVRETINRHRIYKMDPALWMAFFTVFTGYLESVGSLNDQQKAAWMALGKEFNAESQTHLKNSNLPHV”, the “soluble on expression in E. coli” value was “soluble”. For “SLNSVTRLDGANRYEVAVNVSKQGWTSASTVIVANGKAYADVLSATPFAYRNNAPVLLTEASKLPTATKNRISQLKPSKVIVIGGTVSVQNGVVSEIKKLGVSSVERIGGANRYEVAANIANKLPSNSKAVIANGTAYADSLAIGAYAARNGIPILLTSSNSIPTATKNAMKSKGTTSTIVVGGEVSISSSVYKQLASPTRIGGSNRYEVAANVVKKYYSSAKNAIISNGYAYADGLTGSVLAAKQNRPMMFTNASSLPTPTREVIGSKNMTTFTVLGGTVSLQSNVVSQLKN”, the “soluble on expression in E. coli” value was “not soluble”. In the case of “SAEDELVEIVPNMNMEQLNFISGDFGRFIPQIPTKVPLWLAVALKRRGKCTFRPPGWMSVDNLTQILEAERESQSTFQALPFSYVEIARLLFDHARDDIPDMYMVRSLVEDIRDVRLHKLETNLGSFQGTSAVKISNVSAMEVNIVRPFVIRALEAFYKHDKPEADVDRDTRSSRQQRETNNEPRRPLRQR”, the “soluble on expression in E. coli” value is reported as “soluble”. For “ADPVMLEIFNNRFMSVAEQMGYTLQNTAHSVNIKERLDFSCAIFDGKGNLIANAPHIPVHLGSMGECVKYLIRARSVEMTAGDVYLINSPYHGGTHLPDLTVVTPMSGNLGEILFYLASRGHHADVGGVTPGSMPPDSRTIEEEGVLSEGMKIVEQGRFLEEKLRLWLGSGKYPARNPDQNVADIRAQVAANEKGLQELHRMVEEFSLETVEAYMGHVQDNAEEAVRRVIDRLEDGEFTYPLDDGNAIKVKVKIDRENRNAKIDFSGTSSQLPSNFNAPASVCLAAVLYAFRTLVKSDIPLNAGCLRPLEIIIPEGSMLKPEPPASVVAGNVETSQYIVDAIFGALGSLAASQGTMNNFTFGNADFQYYETICGGSGAGPGFSGTDAVHTHMTNSRITDPEVLETRFPVLLEEFSIRQGSGGEGEFRGGNGVVRKFRFLKDMDAAILSSHRKFPPFGLKGGMPGKCGKNTLIRRDGSVIEAGGKAELKLKSEDVFVIETPGGGGYGRPENFRPEK”, the “soluble on expression in E. coli” value was “not soluble”. With “MKTYDPATAVKTTGEFNGKKRFAVLLMGTDTGALNRTEKRGRTDTMILAVVNPAKKRYTLVSIPRDTMAQMVGSSSFTTEKINAAYEIGGARMSMDSVSALINVPIKYYAVVNMGGIMKMIRYVGGINIRPTLSFEYGGYVFKKGKLTHMGGAGALAYSRMRYDDPRGDYGRQERQRQVITTLIKKAVSVSSLTNLDSILTSVSSNVRTNLPFSALQQIALNYRGCANSSSSDYLHGYNAMIDDAAYQVQPTEELQRISDLVRTELGLEHHHHHH” the “soluble on expression in E. coli” value was “soluble”. In the case of “MGSDKIHHHHHHMVKLYKEIINLIDNHQATMVEQLHQFCEINSGTTNLTGLAIMAETLCSAFKPIADTTELITLPPLSVIDMTGNTVMQSCGDVLFISKRPHLKRRILLSGHMDTVYSASNPFQKLSYLDANQINGPGVADMKGGLIVILHALAAFENTRFAEDMGWDVLINSDEEIGSPTSGSLFNKLAHRYQAALVYEPAMTPNGTLAKNRKGSGKLTLVATGRAAHAGRAFDEGRNAICYLAEAITAVHALNGQKNGVTINVGKIAGGEALNVVPDKAVAQLDIRISLPEDEIWVRNELNKIIKQLERPDYSLNVHGTFGRPVKRICAGTERLFHRIQKIGEALGLTIDWKDSGGCCDGNNLAHYGLPVLDTLGVRGGNIHSSDEYILLDSLSERAALSALLLIDLAQGGLEDLIK”, the “soluble on expression in E. coli” value is reported as “not soluble”. In the case of “MRRGLAWVGALLLLGGCVSSRPIDEIQIIQQMGYDFENGRYTGTAVYPTFKQGPMTKPNMLTTTSPTIYDLIPRLSSKSALPIEEGQLRLILFGKEFARRGVTQITHSLARNNKVGSHLLLGVAEESAKELLKITAKTTLSDTLYLPNLVEQNEQSMNLPKTNLHLFLYRYFSPGSDPFLPYFEKKGDFVKLEGVALFRDDQYVGHVSLRDSFLMKILLGETKNGVYQLKVGNRGKQGEDRVMLQNLWAKPKYAWKRDGSRHVLDVFIHIHASVRDYPSWLDQPGGDLFADVKKKMQNELEHNMRRLFRYFQKKRIDPLGIGDFVRSVTRHWDSDAFYREYPDLDIRPHVTVDIVHTGIGE”, the “soluble on expression in E. coli” value is reported as “not soluble”.
